# According to the nanobody polyreactivity screen of Harvey et al. (2022):
# Test: yeast display, Sf9 membrane polyspecificity reagent, FACS + sequencing; frameworks hold sequencing errors
# Procedure, shortened: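 A synthetic nanobody library was expressed on Saccharomyces cerevisiae BJ5465 by galactose induction for 36–48 hours. The library was stained for 1 hour at 4 °C with 10% biotinylated, detergent-solubilized Sf9 membrane reagent and enriched with streptavidin microbeads before FACS. Low and high (top ~1%) gates were set on anti-HA fluorescence for expression and streptavidin fluorescence for reagent binding, and each polyreactivity label reflects the gate of origin.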
row,Sequence,polyreactivity (PSR sort gate)
1,QVKLVESGGGLVQSGGSLRLSCAAYGRIFATNAMGWYRPAPGKERELVATITRSAGRTYYADSVKGRFTISRVKAKHSVYLQMNRLKPEDTAVFYFAASYWDTGPGYREYDYWGEGTQVTVSS,low polyreactivity
2,QVQLVESGGGLVQAGGSLRLSCAASGITFERYTMGWYRQAPGKERELVAAIRGSGGTYYADSVKGRFTISRDNAKNTVYLQMNSLKPEDTAVYYCAARYSYRYGVVYGTLHGYWGQGTQVTVSS,high polyreactivity
3,QVHLVESGGGLVQAGGSLRLSCAASGRTFYANAMGWYIQAPGKERELVAAISTGGDGTYYADSVKGRFTISRDNAKNTVYLQMNSLKPEDTAVYYCAVRHRASGILYDYWGQGTQVTVSS,low polyreactivity
4,QVQLVESGGGLVQAGGSLRLSCAASGRIFIHYAMGWYRQAPGKERELVAAITFNGGSTYYADSVKGRFTISRDNAKNTVYLQMNSLKPEDTAVYYCAARLSKRSGYYYWGQGTQVTVSS,high polyreactivity
5,QVQLVESGGGLVQAGGSLRLSCAASGRIFYNYAMGWYRQAPGKERELVAAISGSGGSTYYADSVKGRFTISRDNAMNTVYLQMNSLKPEDTAVYYCSTSGPQYYSRNFDYWGQGTQVTVSS,low polyreactivity
6,QVQLVESGGGLVQAGGSLRLSCAASGSIFWANAMGWYRQAPGKERELVAAISSSGGGTYYADSVKGRFTISRDNAKNTVYLQMNSLKPVDTAVYYCNKLRLDYYEQGDYWGQGSQVTVSS,high polyreactivity
7,QVQLVESGGGLVQAGGRLRLSFAASGITFYVYTMGWYRQAPGKERELVPAISTTGSTNYADSVKGRFTISRDNAKNTVYLQMNSLKPEDTAVYYCNAKYYWLVFEYDYWGQGTQVTVSS,high polyreactivity
8,QVQLVESGGGLVQEGGSLRLSCAASGGIFGWYAMGWYRQAPGKERELVATITWRGGRTYYADSVKGRFTISRDNEKNTVYLQMNSLKPEDTAVYYCNAEWLWYDAGYRYTIRDSWGQGTQVTVSS,low polyreactivity
9,QVQLVESGGGLVQAGGSLRLSCAASGRIFRHYAMGWYRQAPGKVRELVAAIRWSGGSTYYADSVKGRFTISRDNAKNTVYLQMNSLKPADTAVYYCATRDAVGHRPSGPYQLYDYWGQGTQVTVSS,low polyreactivity
10,QVQLVETGGGLVQAGGSLRISCAASGFTFSSYVMGWYRQAPGKERELVAAITRGGGSTYYADSVKGRFTISRDNAKNTVYLQMNRLKPEDTAVYYCAARGWRYSYTSVLFDYCGQGTQVTVSS,high polyreactivity
11,QVHLVESGGGLVQAGGSLRLSCAASGRTFWNYAMGWYRQAPGKEREFVAVIRFSDGSTYYADSVKGRFTISRDNAKNTVYLQMNSLKPDDTAVYYCAAKGPRRWGSGFDYWGQGNQVTVSS,low polyreactivity
12,QVQLVESGGGLVQAGGSLRLSCAASGRTFPTNAMGWYRQAPGKERELVARITWSGGSTYADSVKGRFTISRDNAKNTVYFQMNSLKPEDTAVYYCAARGYKPQFPWRRYDYWGQGTQVTVSS,high polyreactivity
13,QDQHVESGGGLVQAGGSLRLSCAASGIIFYAYVMGWYRQAPGKERELVAAITVSGGSTYYADSVKARFTISRDNAKNTVYLQMNSLKPEDTAVYYCAADWNFYQRTFDSWGQGTQVTVSS,low polyreactivity
14,QVQLVESGGGLVQAGGSLRLSCAASGGTFGHYTMGWYRQAPGKERELVAAISGSGGTTYYADSVKGRFTISRDNAKNTVYLQINSLKPEDTAVYFCNKGIPTRSVRSYDYWGQGTKVTVSS,high polyreactivity
15,QVQLVESGGGLVQAGGSLRLSCAASGSTFWYNAMGWYRQAPGTEREFVAAISSRGGNTFYADSVKGRFTISRDNAKNTVYLQMNSLKPEDTAVYYCDARFNRPYDYWGQGTQVTVSS,low polyreactivity
16,QVQLVESGGGLVQAGGTLRLSCAASGLTFKSYDMGWYRHAPGKERELVAAITSGVSTHYADSVKGRFTISRDNAKNTVYLQMNSLKPEDTAVYYCAADYSWYDPYWIMDYWGQGTQVTVSS,low polyreactivity

row,Sequence,polyreactivity (PSR sort gate)
1,QVQLVESGGGLVQAGGSLRLSCAASGSTFSRYAMGWYRQAPGKERELVAAISSNGGRTYYADSVKGRFTISRDNAKNTVYLQMNSLKPEDTAVYYCAAVNYLTMDYWGQGTQVTVSS,high polyreactivity
2,QVQLVESGGGLVQAGGSLRLNCAASGSIFVLYAMGWYRQAPRKERELVAAIRSTGSTNYADSVKGRFTISRDNAKNTVYLQMNSLKPEDTAVYYCAAYRRRTYAVNKEGGYWGQGTQVTVSS,high polyreactivity
3,QVQLVESGGGLVQAGGSLRLSCAASGFIFRYYAMGWYRQAPGKERELVAAISWSGGTTYYADSVKGRFTISRDNAKNTVYLQMNSLKPEDTAVYYCAARVARISVPYDYWGQGTEVTVSS,low polyreactivity
4,QVQLVESGGGLVQAGGSLRLSCAASGTFAGNAMGCYRQSPGKERELVASITTGGRTYYADSVKGRFTISRDNAKNTVYLQMNSLKPEDTAVFYCSADLIRELEFDYWGQGTQVTVSS,low polyreactivity
5,QVQLVESGGGLVQAGGSLRLSCAASGSTFTGYAMGWYRPAPGKESELVAAISISGGRTFYADSVKGRFTISRDNAKNTVYLQMNSLKPEDTSVYYCAVYRRGGVEAFLYWGQGTQVTVSS,high polyreactivity
6,QVQLVESGGGLVQAGGSLSLSCAASGRTFFKYAMGWYRQAPGKERELVASITGRGGSTYADSVKGRFTISRDNAKNTVYLQMNSLKPEDTAVYYCAKVYQRGAQYYYYKYDYWGQGTQVTVSS,high polyreactivity
7,QVQLVESGGGLVQAGGSLRLSCAASGFTFVPYAMGWYRQAPGKERELVAAISYSGGSRYYADSVKGRFTISRDNAKNTVYLQMNSLKPEDTAVYYCAALRWYHYGYWGQGTQVTVSA,high polyreactivity
8,QVQLVESGGGLVQAGGSLRLSCADSGRTIRGNAMGWYRQAPGKERELVAAITSSGGGTYYADSVKGRFTISRDNAKNTVYLQMNSLNPEDTAVFYGAAEYRDGYRFSYDYWGQGTQVTVSS,low polyreactivity
9,QVQLVESGGGLVQAGGSLRLSCAASGSTFYKYAMGWYRPAPGKERELVATINISGGSTSYADSVKGRFTISRDNAKNTVYLQMNSLKPQDTAVYYSNADAFYLGHDYWGQGTEVTVSS,high polyreactivity
10,QVQLVESGGGLVQAGGSLRLSCAASGITFVRYALGWYRPAPGKERELVAAISRRGGSTYYADSVKGRFTISRDNAKNTVYLQMNSLKPEDTAVYYCNAQRPKATVWQLYDSWGQGTQVTVSS,high polyreactivity
11,QDQLVESGGGLVQAGGSLRLSCAASGRTFYYYTMGWDRQAPGKERELVAAISRRGGRTYYADSVKRRFTISRDNAKNTVYLQMTSLKPEDTAVYYCAADRDHVVDFDYWGQGTQVTVSS,high polyreactivity
12,QVQLVESGGGLVQAGGSLRLSCAASGLTFYYYAMGWYRQAPGKERELVAAISCSGGSTYYADSVKGRFTISRDNAKNTVYLQMNSLKPEDTAVYYCAAEGDYFLWYRYDYWGQGTQVTVSS,high polyreactivity
13,QVQLVESGGGLVQAGGSLRLSCAASGRTFKNYAMGSYRQAPGKERELVAAISWRSGSTNYADSVKGRCTISRDNAKNTVYLQMNSLKPEDTAVYYCARKRRISGWSQFTSYADFDYWGQGSQVTVSS,low polyreactivity
14,QVQLVESGGCLVQAGGSLRLSCAASGLTFGSNAMGWYRQAPGKERELVAAISSTGSTYYADSVKGRFTISRDNAKNTVYLQMNSLKPEDTAVYYCAAYDYWGQGTQVTVSS,low polyreactivity
15,QVQLVESGGGLVQAGGSLRLSCAASGSIFIFNAMGWYRQAPGKEREFVARIRRDSSTYYADSVKGRFTISRDNAKNTVYLQMNSLKPEDTAVYYCADKRVYRRVELNSWGQGTQVTVSS,low polyreactivity
16,QVQLVESGGGLVQAGGSLRLSCAASGFTFPWYAMGWYIQAPGKERELVASISYRGDSTYYADSVKGRFTISRDNAKNTVYLQMNSLKPEDTAVYYCNKRLASYYLPGFDYWGQGTQVTVSS,low polyreactivity
